T1: cynomolgus HER2 (cynomolgus monkey)
T1 chain: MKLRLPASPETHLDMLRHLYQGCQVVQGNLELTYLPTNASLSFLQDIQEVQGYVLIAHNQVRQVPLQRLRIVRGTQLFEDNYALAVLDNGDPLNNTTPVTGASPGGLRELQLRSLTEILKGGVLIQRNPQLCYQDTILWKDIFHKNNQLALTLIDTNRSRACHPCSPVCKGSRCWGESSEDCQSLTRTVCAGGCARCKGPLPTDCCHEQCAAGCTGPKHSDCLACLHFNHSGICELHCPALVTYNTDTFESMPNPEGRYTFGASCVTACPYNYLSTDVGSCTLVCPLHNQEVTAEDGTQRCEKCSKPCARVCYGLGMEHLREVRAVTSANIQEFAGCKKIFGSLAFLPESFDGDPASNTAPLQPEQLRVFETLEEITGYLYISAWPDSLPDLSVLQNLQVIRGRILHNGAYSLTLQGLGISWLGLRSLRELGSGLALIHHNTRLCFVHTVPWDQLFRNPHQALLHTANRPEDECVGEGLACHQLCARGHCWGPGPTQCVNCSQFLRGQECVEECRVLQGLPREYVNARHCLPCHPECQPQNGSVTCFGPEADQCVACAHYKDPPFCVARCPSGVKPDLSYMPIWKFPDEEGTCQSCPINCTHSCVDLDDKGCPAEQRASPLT

T2: cynomolgus CD137 (cynomolgus monkey)
T2 chain: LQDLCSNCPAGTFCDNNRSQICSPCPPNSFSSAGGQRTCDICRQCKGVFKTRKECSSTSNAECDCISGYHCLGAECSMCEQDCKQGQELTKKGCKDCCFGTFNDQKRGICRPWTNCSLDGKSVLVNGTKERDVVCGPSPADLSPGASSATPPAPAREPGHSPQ


Assays:
Assay in all cases: SPR
human HER2 = human HER2 (human, UniProt P04626)
cynomolgus HER2 = biological target: T1, cynomolgus HER2
cynomolgus CD137 = biological target: T2, cynomolgus CD137
human CD137 = human CD137 (human, UniProt Q07011)
Sequence of human CD137 (Q07011 24-186): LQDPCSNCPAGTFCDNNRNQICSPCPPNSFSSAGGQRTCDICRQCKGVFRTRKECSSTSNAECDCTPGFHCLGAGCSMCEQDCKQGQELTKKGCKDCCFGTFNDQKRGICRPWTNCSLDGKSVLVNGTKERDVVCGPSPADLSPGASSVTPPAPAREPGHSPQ

Binder | Kd (human HER2) [nM] | Kd (cynomolgus HER2) [nM] | Kd (cynomolgus CD137) [nM] | Kd (human CD137) [nM]
DART-B (HER2 arm) (antibody, V domains shown) VH: QVQLVQSGAEVKKPGASVKVSCKASGYTFTNYGMNWVRQAPGQGLEWMGWINTNIGEPTYTEEFKGRVTMTRDTSISTAYMELSRLRSDDTAVYYCARDDGYGNRVSYWGQGTLVTVSS VL: DIQMTQSPSSLSASVGDRVTITCKASQDISNYLSWFQQKPGKAPKTLIYRANRLQSGVPSRFSGSGSGTDFTLTISSLQPEDFATYYCLQHDEFPWTFGQGTKLEIK | 0.38 | 0.66 |  | 
DART-G4 (CD137 arm) (antibody, V domains shown) VH: QVQLVQSGAEVKKPGASVKVSCKASGYTFTSYWINWVKQAPGQGLEWIGNIYPSDSYTNYNQKFKDKATITADKSTSTAYMELSSLRSEDTAVYYCTRDYGSSYSYNVWGQGTTVTVSS VL: DIQMTQSPSSLSASVGDRVTITCRPSQDISNYLNWYQQKPDKTVKLLIYYTSRLRSGVPSRFSGSGSGTDFTFTISSLQPEDIATYFCQQGDTLPYTFGQGTKLEIK |  |  | 40 | 28
DART-G3 (CD137 arm) (antibody, V domains shown) VH: QVQLVQSGAEVKKPGASVKVSCKASGYTFTSYWINWVKQAPGQGLEWIGNIYPSDSYTNYNQKFKDKATITADKSTSTAYMELSSLRSEDTAVYYCTRDYGSAYSYSLWGQGTTVTVSS VL: DIQMTQSPSSLSASVGDRVTITCRPSQDISNYLNWYQQKPDKTVKLLIYYTSRLRSGVPSRFSGSGSGTDFTFTISSLQPEDIATYFCQQGDTLPYTFGQGTKLEIK |  |  | 78 | 64
DART-G2 (CD137 arm) (antibody, V domains shown) VH: QVQLVQSGAEVKKPGASVKVSCKASGYTFTSYWINWVKQAPGQGLEWIGNIYPSDSYTNYNQKFKDKATITADKSTSTAYMELSSLRSEDTAVYYCTRDYGSAYSMSTWGQGTTVTVSS VL: DIQMTQSPSSLSASVGDRVTITCRPSQDISNYLNWYQQKPDKTVKLLIYYTSRLRSGVPSRFSGSGSGTDFTFTISSLQPEDIATYFCQQGDTLPYTFGQGTKLEIK |  |  | 64 | 60
DART-G (CD137 arm) (antibody, V domains shown) VH: QVQLVQSGAEVKKPGASVKVSCKASGYTFTSYWINWVKQAPGQGLEWIGNIYPSDSYTNYNQKFKDKATITADKSTSTAYMELSSLRSEDTAVYYCTRDYGSSYSFDYWGQGTTVTVSS VL: DIQMTQSPSSLSASVGDRVTITCRPSQDISNYLNWYQQKPDKTVKLLIYYTSRLRSGVPSRFSGSGSGTDFTFTISSLQPEDIATYFCQQGDTLPYTFGQGTKLEIK |  |  | 115 | 114
DART-D (CD137 arm) (antibody, V domains shown) VH: QVQLQQPGAELVRPGASVKLSCKASGYTFTSYWINWVKQRPGQGLEWIGNIYPSDSYTNYNQKFKDKATLTVDKSSSTAYMQLSSPTSEDSAVYYCTRDYGSSYSFDYWGQGTTLTVSS VL: DIQMTQTTSSLSASLGDRVTISCRPSQDISNYLNWYQQKPDGTVKLLIYYTSRLRSGVPSRFSGSGSGTDYSLTISNLEQEDIATYFCQQGDTLPYTFGGGTKLEIK |  |  | 67 | 53

— patent US20240233818 (published 2024)
